In patent publication US20200299396A1:

Target: human TNFR1 on the cellular surface of HeLa, HT1080 and Kym-1 cells (human) (UniProt P19438)
Assay: cell-based or functional assay

Chain of human TNFR1 on the cellular surface of HeLa, HT1080 and Kym-1 cells (human) (P19438 30-455 limits assumed): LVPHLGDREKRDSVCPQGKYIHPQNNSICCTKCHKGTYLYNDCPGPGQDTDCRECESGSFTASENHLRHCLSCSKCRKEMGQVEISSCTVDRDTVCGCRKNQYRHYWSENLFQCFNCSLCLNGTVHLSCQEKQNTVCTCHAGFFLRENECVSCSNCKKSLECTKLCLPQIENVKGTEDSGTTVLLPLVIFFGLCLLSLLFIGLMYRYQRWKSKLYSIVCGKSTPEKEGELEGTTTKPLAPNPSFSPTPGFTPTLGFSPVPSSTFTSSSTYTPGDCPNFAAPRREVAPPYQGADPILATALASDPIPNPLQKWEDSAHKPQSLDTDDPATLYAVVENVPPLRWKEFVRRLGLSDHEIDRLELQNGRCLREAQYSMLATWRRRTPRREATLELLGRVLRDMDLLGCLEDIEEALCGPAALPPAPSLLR

IC50, IL-6 [nM] (IL-6 release from HeLa cells, 0.1 nM TNF): 165 nM
IC50, IL-8 [nM] (IL-8 release from HT1080 cells, 0.1 nM TNF): 84.1 nM
Substance: ATROSAB (antibody)
IC50, Cell death induction [nM] (Kym-1 cells, TNF-induced): 64.4 nM
